T1: recombinant His6-tagged extracellular domain of human Clec4C (C-type lectin domain family 4, member C) (human, UniProt Q8WTT0 44-213)
T1 construct: Same antigen for immunisation, panning and ELISA; also called His-Clec4C(EC); pMET7-SIgK-His-Clec4C(EC)
T1 sequence: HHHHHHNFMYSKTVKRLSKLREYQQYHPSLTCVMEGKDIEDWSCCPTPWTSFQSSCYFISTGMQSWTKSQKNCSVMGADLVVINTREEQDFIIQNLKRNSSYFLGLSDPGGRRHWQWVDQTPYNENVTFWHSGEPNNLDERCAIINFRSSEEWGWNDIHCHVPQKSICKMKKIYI


Columns and labels:
[1] = target: T1, recombinant His6-tagged extracellular …; experiment: ELISA, TG1 periplasmic extract on coated antigen
Text: (§1) In total, 190 colonies from rounds 1 and 2 were randomly selected and analyzed by ELISA for the presence of antigen-specific VHH in their periplasmic extracts (ELISA using crude periplasmic extracts from TG1 cultures including soluble VHH). The antigen used for ELISA screening was the same as the one used for immunization, using uncoated blocked wells as negative control.

[2] = target: T1, recombinant His6-tagged extracellular …; experiment: ELISA, antigen-coated vs uncoated blocked wells
Text: as §1

| Binder | ELISA coated [1] | ELISA ratio coated/uncoated [2] |
| --- | --- | --- |
| 1CL81 (VHH, pMECS VHH-HA-His6; TG1 periplasmic extract) VHH: QVQLQESGGGLVQAGNSLKLSCAASGRNLAYYVMGWFRQAPGREREPVATLTRGGDDTYCADSVKGRFTISSDNAKNTVYLQMNNLKPEDTAIYTCAARLAVLSSNTYCSGLWDYWGQGTQVTVSS | 1.12 | 4.72 |
| 2CL46 (VHH, pMECS VHH-HA-His6; TG1 periplasmic extract) VHH: QVQLQESGGGLVQAGGSLRLSCAVSGRTFSSYAMGWFRQARGKEREFVAAVEWSSGSTFYTDSVKGRFAISRDIAKNTVYLQMNSLKPEDTAVYYCAGDHTGKLVFSKTSDYWGQGTQVTVSS | 3.3 | 4.82 |
| 2CL65 (VHH, pMECS VHH-HA-His6; TG1 periplasmic extract) VHH: QVQLQESGGGLVQPGGSLRLSCAASGRIFSINAMGWYRQAPGKQRELVAVISRSGISNYVDSVKGRFTISRDNAKNTVYLQMNSLNPEDTADYYCNADVLLTFNKREDSWGQGTQVTVSS | 1.72 | 9.33 |
| 2CL40 (VHH, pMECS VHH-HA-His6; TG1 periplasmic extract) VHH: QVQLQESGGGLVQTGGSLRVSCAASGRSISNYNMGWFRQPPGKEREIVGSIRWDGDSTYYADSVKGRFTISRDNTKNTVYLQMNSLKSEDTADYYCAATVSSFDESKNPRWYPYWGQGTQVTVSS | 3.11 | 13.3 |
| 1CL56 (VHH, pMECS VHH-HA-His6; TG1 periplasmic extract) VHH: QVQLQESGGGLVQPGGSLTLSCGASGFDFSDYVMYWLRQAPGKGLQWVSSINASGVRTYYVDALKGRFTISRDNAKNTLYLQIDDLKPEDTGLYYCARVGQAPMYFGVDFWGNGTQVTVSS | 3.89 | 4.82 |
| 2CL34 (VHH, pMECS VHH-HA-His6; TG1 periplasmic extract) VHH: QVQLQESGGGLVQAGGSLRLSCAASGRTFTNYAMGWFRQAPGKEREFVATISRSGSMPYYADSVKGRFTISRDNAKNMVYLQMNSLKPEDTAVYYCAANVLVTTTRLDQYDSWGQGTQVTVSS | 2.8 | 3.83 |
| 2CL66 (VHH, pMECS VHH-HA-His6; TG1 periplasmic extract) VHH: QVQLQESGGGLVQAGGSLRLSCAASERTFTNYAMGWFRQGPGKDRAFVAAISRSGSSTSYADSVKGRFTISRDNAENILYLQMNSLKPEDTAVYYCAAAPLVLKTTPGAYNYWGQGTQVTVSS | 2.04 | 18.6 |
| 2CL56 (VHH, pMECS VHH-HA-His6; TG1 periplasmic extract) VHH: QVQLQESGGGSVQAGDSLTLSCIASGRTFSSLAMGWFRQAPGKEREFVAAINWSGDSTYYSDSMKGRLTMSRDNAKNTVFLQMNSLEPEDTAVYVCAADASGYGSAWPDRYDYWGQGTQVTVSS | 0.999 | 4.72 |
| 2CL15 (VHH, pMECS VHH-HA-His6; TG1 periplasmic extract) VHH: QVQLQESGGGLVQPGGSVRLSCAASVFTLNNFIMSWVRQAPGKGLERVSDINMVGITDYSDPVKGRFTISRDNKQNTVYLQGNTLKPEDTAVYFCAAGRPIGLYYPSPRIRDYNDWGQGTQVTVSS | 3.9 | 12.8 |
| 2CL29 (VHH, pMECS VHH-HA-His6; TG1 periplasmic extract) VHH: QVQLQESGGGLVQPGDSLRLSCTASERTFTNYAMAWFRQAPGKERDVLATISRSGSSTFYAESVKGRFTISRDNTKNTVYLQMNSLEPEDTAVYYCAARPLVPSEDPDNYNYWGQGTQVTVSS | 2.24 | 6.84 |
| 2CL57 (VHH, pMECS VHH-HA-His6; TG1 periplasmic extract) VHH: QVQLQESGGGLVQAGGSLKLSCAASGRTFSSYAMGWFRQAPGKERDFVAVISWRNNTYYADSVKGRFTISRDNAKNTVHLQMNSLKSEDTAVYYCAAAGLGAVVAGMSDYDYWGQGTQVTVSS | 0.922 | 4.38 |
| 2CL81 (VHH, pMECS VHH-HA-His6; TG1 periplasmic extract) VHH: QVQLQESGGGLVQAGDSLKLSCAASGRTFSTYAMGWFRQAPGKERDVVAAIATNGGTTYYVDSVKGRFTISRDNAQNRVYLQMNSLKPEDTAIYYCAARLSFGSGYYTNKLNYAYWGQGTQVTVSS | 3.69 | 8.32 |
| 1CL88 (VHH, pMECS VHH-HA-His6; TG1 periplasmic extract) VHH: QVQLQESGGGLVQAGGSLRLSCAASGRIFSNSAMGWFRQVLGKEREFVAAISENSSILYYTASVKGRFTISRDNDKNTVYLQMTSLKAEDTAVYYCAGYGSTTIRTTTRPTKWGQGTQVTVSS | 4 | 3.42 |

Source: patent publication US20220119472A1 (ORIONIS BIOSCIENCES, published 2022)
